Where no end group is shown, it is not given here.
T1: Human CD3eg linker (human)
T1 construct: Single chain: CD3 epsilon and gamma subunits joined by a 29-mer linker, Flag-tag at the C-terminus; also called recombinant human CD3
T1 chain: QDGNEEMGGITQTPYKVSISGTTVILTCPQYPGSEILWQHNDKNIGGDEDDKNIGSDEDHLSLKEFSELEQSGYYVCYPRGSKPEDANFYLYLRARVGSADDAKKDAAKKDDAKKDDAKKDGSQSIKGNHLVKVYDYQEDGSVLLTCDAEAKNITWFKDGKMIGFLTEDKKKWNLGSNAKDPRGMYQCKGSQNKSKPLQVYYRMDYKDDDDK

T2: Biotin-labeled CD3 epsilon peptide antigen (human, also: biotin-labeled, site not given here)
T2 construct: also called CD3 peptide
T2 peptide: QDGNEEMGGITQTPY

T3: cyno CD137-Fc (cynomolgus monkey; human, limits assumed, biotin-labeled)
T3 construct: whole entry 92 named; also called biotin-labeled cynomolgus monkey CD137 fused to human IgG1 Fc fragment; not shown: human IgG1 Fc fragment
T3 chain: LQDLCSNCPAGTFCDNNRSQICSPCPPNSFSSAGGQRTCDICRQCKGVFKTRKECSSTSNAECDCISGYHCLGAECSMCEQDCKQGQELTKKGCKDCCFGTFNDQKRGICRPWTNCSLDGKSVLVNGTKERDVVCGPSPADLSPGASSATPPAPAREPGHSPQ


What was measured:
[1] = biological target: T4, Human CD137 ECD (human); test: SPR (Biacore), affinity of single-mutation variant against parental H183/L072
T4 construct: also called human CD137 extracellular domain; hCD137

[2] = biological target: T1, Human CD3eg linker; test: affinity relative to template H183/L072, single-mutation scan
[3] = biological target: T2, Biotin-labeled CD3 epsilon peptide …; test: bead ELISA, IgG on biotinylated CD3 epsilon peptide, luminescence
[4] = biological target: T5, human CD137-Fc (human, biotin-labeled); test: bead ELISA on biotin-human CD137-Fc, 125 vs 0 pmol free CD3e peptide;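 further: target captured on streptavidin-coated magnetic beads, signal read as fluorescence 2 min after adding APS-5 substrate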
T5 construct: if 90 already holds the Fc, drop the second piece; also called biotin-labeled human CD137 fused to human IgG1 Fc fragment; biotin-human CD137-Fc; not shown: human IgG1 Fc fragment

[5] = biological target: T5, human CD137-Fc; test: bead ELISA, IgG on biotinylated antigen, luminescence;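 further: biotinylated antigen captured on streptavidin magnetic beads, then incubated with purified IgG at 50 ng/µL for 1 h at room temperature before detection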
[6] = biological target: T3, cyno CD137-Fc; test: as above
[7] = biological target: T5, human CD137-Fc; test: bead ELISA on biotin-human CD137-Fc, 0 pmol free CD3e peptide
[8] = biological target: T5, human CD137-Fc; test: bead ELISA on biotin-human CD137-Fc with 125 pmol/well free CD3e peptide as competitor;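 further: Streptavidin-coated magnetic beads in blocking buffer as the capture surface, well signal read as fluorescence 2 min after adding APS-5 substrate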

Binder | fold change of affinity for CD137 [1] | fold change of affinity for CD3 [2] | also measured
H183/L072 with F55Y (Kabat) in VL dBBDu072L (antibody, name in Kabat numbering, V domains shown, Single-mutation variant of H183L072) VH: QVQLVESGGGLVQPGRSLRLSCAASGFTFSNAWMHWVRQAPGKGLEWVAQIKDKGNAYAAYYAPSVKGRFTISRDDSKNSIYLQMNSLKTEDTAVYYCHYVHYASASTVLPAFGVDAWGQGTTVTVSS VL: DIVMTQSPLSLPVTPGEPASISCQASQELVHMNRNTYLHWYQQKPGQAPRLLIYKVSNRYPGVPDRFSGSGSGTDFTLKISRVEAEDVGVYYCAQGTSVPFTFGQGTKLEIK | – | 10.6 fold | –
DXDU01_3#072 (antibody, V domains shown, Human IgG1; light chain GLS3000 (kappa); also called dBBDu122) VH: QVQLVESGGGLVQPGRSLRLSCAASGFTFSNAWMHWVRQAPGKGLEWVAQIKDRSQLYAAYYAPSVKGRFTISRDDSKNSIYLQMNSLKTEDTAVYYCHYVHYASASTVLGAYGVDAWGQGTTVTVSS VL: DIVMTQSPLSLPVTPGEPASISCRSSQSLVHSNRNTYLHWYQQKPGQAPRLLIYKVSNRFSGVPDRFSGSGSGTDFTLKISRVEAEDVGVYYCGQGTQVPYTFGQGTKLEIK | – | – | RLU [3]: 177000 RLU; S/N ratio (CD3 peptide/non coating) [3]: 148; Signal decrease [4]: 30.2%; RLU [5]: 14100 RLU; S/N ratio (human CD137-Fc/Fc) [5]: 6.58; RLU [6]: 3350 RLU; S/N ratio (cyno CD137-Fc/Fc) [6]: 1.56; ELISA signal [7]: 2700; ELISA signal [8]: 1880
H183/L072 with N53Y (Kabat) in VL dBBDu072L (antibody, name in Kabat numbering, V domains shown, Single-mutation variant of H183L072) VH: QVQLVESGGGLVQPGRSLRLSCAASGFTFSNAWMHWVRQAPGKGLEWVAQIKDKGNAYAAYYAPSVKGRFTISRDDSKNSIYLQMNSLKTEDTAVYYCHYVHYASASTVLPAFGVDAWGQGTTVTVSS VL: DIVMTQSPLSLPVTPGEPASISCQASQELVHMNRNTYLHWYQQKPGQAPRLLIYKVSYRFPGVPDRFSGSGSGTDFTLKISRVEAEDVGVYYCAQGTSVPFTFGQGTKLEIK | – | 0.7 fold | –
H183/L072 with P56Y (Kabat) in VL dBBDu072L (antibody, name in Kabat numbering, V domains shown, Single-mutation variant of H183L072) VH: QVQLVESGGGLVQPGRSLRLSCAASGFTFSNAWMHWVRQAPGKGLEWVAQIKDKGNAYAAYYAPSVKGRFTISRDDSKNSIYLQMNSLKTEDTAVYYCHYVHYASASTVLPAFGVDAWGQGTTVTVSS VL: DIVMTQSPLSLPVTPGEPASISCQASQELVHMNRNTYLHWYQQKPGQAPRLLIYKVSNRFYGVPDRFSGSGSGTDFTLKISRVEAEDVGVYYCAQGTSVPFTFGQGTKLEIK | – | 2.7 fold | –
H183/L072 with S52Y (Kabat) in VL dBBDu072L (antibody, name in Kabat numbering, V domains shown, Single-mutation variant of H183L072) VH: QVQLVESGGGLVQPGRSLRLSCAASGFTFSNAWMHWVRQAPGKGLEWVAQIKDKGNAYAAYYAPSVKGRFTISRDDSKNSIYLQMNSLKTEDTAVYYCHYVHYASASTVLPAFGVDAWGQGTTVTVSS VL: DIVMTQSPLSLPVTPGEPASISCQASQELVHMNRNTYLHWYQQKPGQAPRLLIYKVYNRFPGVPDRFSGSGSGTDFTLKISRVEAEDVGVYYCAQGTSVPFTFGQGTKLEIK | – | 1.5 fold | –
H183/L072 with A89Y (Kabat) in VL dBBDu072L (antibody, name in Kabat numbering, V domains shown, Single-mutation variant of H183L072) VH: QVQLVESGGGLVQPGRSLRLSCAASGFTFSNAWMHWVRQAPGKGLEWVAQIKDKGNAYAAYYAPSVKGRFTISRDDSKNSIYLQMNSLKTEDTAVYYCHYVHYASASTVLPAFGVDAWGQGTTVTVSS VL: DIVMTQSPLSLPVTPGEPASISCQASQELVHMNRNTYLHWYQQKPGQAPRLLIYKVSNRFPGVPDRFSGSGSGTDFTLKISRVEAEDVGVYYCYQGTSVPFTFGQGTKLEIK | – | 0.5 fold | –
H183/L072 with R54Y (Kabat) in VL dBBDu072L (antibody, name in Kabat numbering, V domains shown, Single-mutation variant of H183L072) VH: QVQLVESGGGLVQPGRSLRLSCAASGFTFSNAWMHWVRQAPGKGLEWVAQIKDKGNAYAAYYAPSVKGRFTISRDDSKNSIYLQMNSLKTEDTAVYYCHYVHYASASTVLPAFGVDAWGQGTTVTVSS VL: DIVMTQSPLSLPVTPGEPASISCQASQELVHMNRNTYLHWYQQKPGQAPRLLIYKVSNYFPGVPDRFSGSGSGTDFTLKISRVEAEDVGVYYCAQGTSVPFTFGQGTKLEIK | – | 1.6 fold | –
H183/L072 with F96Y (Kabat) in VL dBBDu072L (antibody, name in Kabat numbering, V domains shown, Single-mutation variant of H183L072) VH: QVQLVESGGGLVQPGRSLRLSCAASGFTFSNAWMHWVRQAPGKGLEWVAQIKDKGNAYAAYYAPSVKGRFTISRDDSKNSIYLQMNSLKTEDTAVYYCHYVHYASASTVLPAFGVDAWGQGTTVTVSS VL: DIVMTQSPLSLPVTPGEPASISCQASQELVHMNRNTYLHWYQQKPGQAPRLLIYKVSNRFPGVPDRFSGSGSGTDFTLKISRVEAEDVGVYYCAQGTSVPYTFGQGTKLEIK | – | 0.4 fold | –

Now from value to binder, other results behind:

fold change of affinity for CD137 [1] | fold change of affinity for CD3 [2] | Binder | also measured
1.2 fold | – | Dual-Fab H183/L072 variant with single light chain mutation S52Y (Kabat) (antibody, name in Kabat numbering, V domains shown, expressed as an antibody in Expi293 and purified on Protein A; also called dBBDu183H / dBBDu072L S52Y) VH: QVQLVESGGGLVQPGRSLRLSCAASGFTFSNAWMHWVRQAPGKGLEWVAQIKDKGNAYAAYYAPSVKGRFTISRDDSKNSIYLQMNSLKTEDTAVYYCHYVHYASASTVLPAFGVDAWGQGTTVTVSS VL: DIVMTQSPLSLPVTPGEPASISCQASQELVHMNRNTYLHWYQQKPGQAPRLLIYKVYNRFPGVPDRFSGSGSGTDFTLKISRVEAEDVGVYYCAQGTSVPFTFGQGTKLEIK | –
0.8 fold | – | Dual-Fab H183/L072 variant with single light chain mutation S93Y (Kabat) (antibody, name in Kabat numbering, V domains shown, expressed as an antibody in Expi293 and purified on Protein A; also called dBBDu183H / dBBDu072L S93Y) VH: QVQLVESGGGLVQPGRSLRLSCAASGFTFSNAWMHWVRQAPGKGLEWVAQIKDKGNAYAAYYAPSVKGRFTISRDDSKNSIYLQMNSLKTEDTAVYYCHYVHYASASTVLPAFGVDAWGQGTTVTVSS VL: DIVMTQSPLSLPVTPGEPASISCQASQELVHMNRNTYLHWYQQKPGQAPRLLIYKVSNRFPGVPDRFSGSGSGTDFTLKISRVEAEDVGVYYCAQGTYVPFTFGQGTKLEIK | –
0 fold | – | Dual-Fab H183/L072 variant with single light chain mutation T92Y (Kabat) (antibody, name in Kabat numbering, V domains shown, expressed as an antibody in Expi293 and purified on Protein A; also called dBBDu183H / dBBDu072L T92Y) VH: QVQLVESGGGLVQPGRSLRLSCAASGFTFSNAWMHWVRQAPGKGLEWVAQIKDKGNAYAAYYAPSVKGRFTISRDDSKNSIYLQMNSLKTEDTAVYYCHYVHYASASTVLPAFGVDAWGQGTTVTVSS VL: DIVMTQSPLSLPVTPGEPASISCQASQELVHMNRNTYLHWYQQKPGQAPRLLIYKVSNRFPGVPDRFSGSGSGTDFTLKISRVEAEDVGVYYCAQGYSVPFTFGQGTKLEIK | –
0.2 fold | – | Dual-Fab H183/L072 variant with single light chain mutation V51Y (Kabat) (antibody, name in Kabat numbering, V domains shown, expressed as an antibody in Expi293 and purified on Protein A; also called dBBDu183H / dBBDu072L V51Y) VH: QVQLVESGGGLVQPGRSLRLSCAASGFTFSNAWMHWVRQAPGKGLEWVAQIKDKGNAYAAYYAPSVKGRFTISRDDSKNSIYLQMNSLKTEDTAVYYCHYVHYASASTVLPAFGVDAWGQGTTVTVSS VL: DIVMTQSPLSLPVTPGEPASISCQASQELVHMNRNTYLHWYQQKPGQAPRLLIYKYSNRFPGVPDRFSGSGSGTDFTLKISRVEAEDVGVYYCAQGTSVPFTFGQGTKLEIK | –
0.1 fold | – | Dual-Fab H183/L072 variant with single light chain mutation V94Y (Kabat) (antibody, name in Kabat numbering, V domains shown, expressed as an antibody in Expi293 and purified on Protein A; also called dBBDu183H / dBBDu072L V94Y) VH: QVQLVESGGGLVQPGRSLRLSCAASGFTFSNAWMHWVRQAPGKGLEWVAQIKDKGNAYAAYYAPSVKGRFTISRDDSKNSIYLQMNSLKTEDTAVYYCHYVHYASASTVLPAFGVDAWGQGTTVTVSS VL: DIVMTQSPLSLPVTPGEPASISCQASQELVHMNRNTYLHWYQQKPGQAPRLLIYKVSNRFPGVPDRFSGSGSGTDFTLKISRVEAEDVGVYYCAQGTSYPFTFGQGTKLEIK | –
0.3 fold | – | Dual-Fab H183/L072 variant with single light chain mutation T97Y (Kabat) (antibody, name in Kabat numbering, V domains shown, expressed as an antibody in Expi293 and purified on Protein A; also called dBBDu183H / dBBDu072L T97Y) VH: QVQLVESGGGLVQPGRSLRLSCAASGFTFSNAWMHWVRQAPGKGLEWVAQIKDKGNAYAAYYAPSVKGRFTISRDDSKNSIYLQMNSLKTEDTAVYYCHYVHYASASTVLPAFGVDAWGQGTTVTVSS VL: DIVMTQSPLSLPVTPGEPASISCQASQELVHMNRNTYLHWYQQKPGQAPRLLIYKVSNRFPGVPDRFSGSGSGTDFTLKISRVEAEDVGVYYCAQGTSVPFYFGQGTKLEIK | –
